The source of these data is the RNAGym collection of RNA variant scans (doi:10.1073/pnas.2313332121).

Sequences and labels used below:
B1: TPR t1 (parent)
chain: GACCAAUCUGCCCUCAGAGCUCGAGAACAUCUUCGGAUGCAGAGGAGGCAGGCUUCGGUGGCGCGAUAGCGCCAACGUCCUCAACCUCCAAUGCAUCCCACCACAUGAUGAUGCCUGAAGAGCCUUGGUUUUUUG

The variants in this data set derive from B1. The data set can be described thus: polymerase ribozyme fitness, log enrichment relative to wild type (log ratio); higher = more active; in vitro selection for triplet polymerase activity. An outline of the steps:
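Both subunits of a heterodimeric triplet polymerase ribozyme were given their own mutant library, built by PCR and transcribed. Each library was annealed with a biotinylated primer, the partner subunit and triplets, incubated frozen at −7 °C, and its extended constructs gel-excised, captured on streptavidin beads and amplified by RT-PCR, all in one round done in triplicate. Fitness is the logarithm of genotype enrichment relative to wild-type enrichment, with replicates averaged by inverse-variance weighting. That logarithm is base 2, and Illumina-sequenced genotypes needed ≥10 input reads and ≥1 read per output.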
GACUAAUCUGCCCUCAGAGCUCGAGAACAUCUUCGGAUGCAGAGGAGGCAGGCUUCGGUGGCGCGAUAGCGCCAACGUCCUCAACCUCCGAUGCAUCCCACCACAUGAUGAUGCCUGAAGAGCCUUGGUUUUUUG [C4U A90G]: the “polymerase ribozyme fitness (log ratio)” value is -0.325.

As to GACUAAUCUGACCUCAGAGCUCGAGAACAUCUUCGGAUGCAGAGGAGGCACGCUUCGGUGGCGCGAUAGCGCCAACGUCCUCAACCUCCAAUGCAUCCCACCACAUGAUGAUGCCUGAAGAGCCUUGGUUUUUUG [C4U C11A G51C], the “polymerase ribozyme fitness (log ratio)” value was -4.83.

As to GACUAAUCUGCCCUCAGAGCUCGAGAACAUCUUCGGAUGCAGAGGAGGCAGGCUUAGGUGGCGCGAUAGCGCCAACGUCCUCAACCUCCAAUGCAUCCCAACACAUGAUGAUGCCUCAAGAGCCUUGGUUUUUUG [C4U C56A C101A G117C], the “polymerase ribozyme fitness (log ratio)” value was -5.92.

Take GACUAAUCUGCCCUCAGAGCUCGAGAACAUCUUCGGAUGCAGAGGAGGUAGGCUUCGGUGGCGCGAUAGCGCGAACGUCCUCAACCUCCAAUGCAUCCCACCACAUGAUGAUGCCUGAAGCGCCUUGGUUUUUUG [C4U C49U C73G A121C]: the “polymerase ribozyme fitness (log ratio)” value came to 0.746.

Turning to GACUAAUCUGCCCUCAGAGCUCGAGAACAUCUUCGGAUGCAGUGGAGGCAGGCUUCGGUGGCGCGAUAGCGCCAACGUCCUCAACCUUCAAGGCAUCCCACCACAUGAUGAUGCCUGAAGAGCCUUGGUUUUUUG [C4U A43U C88U U92G], the “polymerase ribozyme fitness (log ratio)” value was -2.04.

As to GACUAAUCUGCCCUCAGAGCUCGAGAACAUCUUCGGAUGCAGAGGAGGCAGGGUUCUGUGGCGCGAUAGCGCCAACGUCCUCAACCUCCAAUGCAUCCCACCACAUGAUAAUGCCUGAAGAGCCUUGGUUUUUUG [C4U C53G G57U G110A], the “polymerase ribozyme fitness (log ratio)” value is -1.58.

Take GACUAAUCUGCCCUCAGAGCUCGAGAACAUCUUCGGAUGCAGUGGAGGCAGGCUUCGGUGGCGCGAUAGCGCCAACGUCCUCAACCUCCAAUGCAUCCCACCACAUGAUGAUGCCUGAAGAGCCUUGGUUUUUUG [C4U A43U]: the “polymerase ribozyme fitness (log ratio)” value is -2.23.

Take GACUAAUCUGCCAUCAGAGCUCGAGAACAUCUUCGGAUGCAGAGGCGGCGGGCUUCGGUGGCGCGAUAGCGUCAACGUCCUCAACCUCCAAUGCAUCCCACCACAUGAUGAUGCCUGAAGAGCCUUGGUUUUUUG [C4U C13A A46C A50G C72U]: the “polymerase ribozyme fitness (log ratio)” value was -3.05.

For the variant GACUAAUCUGCCGUAAGAACUCGAGAACAUCUUCGGAUGCAGAGGAGGCAGGCUUCGGUGGCGCGAUAGCGCCAACGUCCUCAACCUCCCAUGCAUCCCACCACAUGAUGAUGCUUGAGGAGCCUUGGUUUUUUG [C4U C13G C15A G19A A90C C115U A119G], the “polymerase ribozyme fitness (log ratio)” value is -5.79.

As for GACUAAUCUGCCCUAAGAGCUCGAGAACAUCUUCGGAUGCAGAGGAGGCAGGCUUCGGUGGCGCGAUAGCGCCAACGUCCUGAACCUCCAAUGCAUCCCACCACAUGAUGAUGCCUGAAGAGCCUUGGUUUUUUG [C4U C15A C82G], the “polymerase ribozyme fitness (log ratio)” value is -3.56.

Regarding GACUAAUCUGCCCUCAGAGCUCGAGAACAUCUUCGGAUGCAGAGGAGGCAGGUUUCGGUGGCGCGAUAGCGCCAACGUCCUCAACCUCCAAUGCAUCCCACCACAUGAUGAUGCCUGAAGAGCCAUGGUUUUUUG [C4U C53U U125A], the “polymerase ribozyme fitness (log ratio)” value is -1.45.

Take GACUAAUCUGUCCUCAGAGCUCGAGAACAUCUUCGGUUGCAGAGGAGGCAGGCUUCGGUGGCGCGAUAGCCCCAACGUCCUCAACCUCCAAUGCAUCCCACCACAUGAUGAUGCCUGAAGAGCCUUGGUUUUUUG [C4U C11U A37U G71C]: the “polymerase ribozyme fitness (log ratio)” value is -1.4.

As for GACUAAUCUGCCCUCAGAGCUCGAGAACAUCUUCGGAUGCAGAGGAGGUAGGCUUCGGUGGCGCGAUAGCGCCAACGUCCUCAACCUCCAAUGCAUCUCACCACAUGAUGAUGCCUGAAGAGCCUUGGUUUUUUG [C4U C49U C98U], the “polymerase ribozyme fitness (log ratio)” value was -2.14.

GACUAAUCUGGCCUCAGAGCUCGAGAACAUCUUCGGAUGCAGAGGAGGCAGGCAUCGGUGGCCCGAUAGCGCCAACGUCCUCAACCUCCAAUGCAUCCCAACACAUGAUGACGCCUGAAGAGCCUUGGUUUUUUG [C4U C11G U54A G63C C101A U112C]: the “polymerase ribozyme fitness (log ratio)” value amounted to 0.841.

For GACUAAUGCGGCCUCAGAGCUCGAGAACAUCUUCGGAUGCAGAGGAGGCAGGCUUCGGUGGGGCGAUAGCGCCAACGUCCUCAACCUCCAAUGCAUCCCACCACAUGAUGAUGCCUGAAGAGCCUUGGUUUUUUG [C4U C8G U9C C11G C62G], the “polymerase ribozyme fitness (log ratio)” value was -0.314.

Consider GACUAAUCUGCCCUCAGAGCUCGAGAACAUCUUCGGAUGCAGAGGAGGCAGGCUUCGGUGGGGCGAUAGCGCCAACGUCCUCAACCUCCAAUGCAUCCCACCACAUGAUGAAGCCUGAAGAGCCUUGGUUUUUUG [C4U C62G U112A], for which the “polymerase ribozyme fitness (log ratio)” value is -1.6.

On to GACUAAUCUGCCCUCAGAGCUCGAGAUCAUCUUCGGAUGCAGAGGAGGCAGGCUUCGGUGGCGCGAUAGCGUCAACGUCCUCAACCUCCAAUGCAUCCCACCACAUGAUGAUGCCUGAAGAGCCUUGGUUUUUUG [C4U A27U C72U], for which the “polymerase ribozyme fitness (log ratio)” value was -2.49.

For GACUAAUCUGCCCUCAGAGCUCGAGAACAUCUUCGGAUGCAGAGGAGGUAGGCUUCGGUGGCGCGGUACCGCCAACGACCUCAACCUCCAAUGCAUCCCACCACAUGAUGAUGCCUGAAGAGCCUUGGUUUUUUG [C4U C49U A66G G69C U78A], the “polymerase ribozyme fitness (log ratio)” value is -5.15.

Take GACUAAUCUGCCCUCAGAGCUCGAGAGCAUCUUCGGAUGCAGAGGAGGCAGGCUUCGGUGGCGCGAUAGCGCCAACGUCCUCAACCUCCAAUGCAUCCCACCACAUGAUGAUGCCUGAAGAGCCUUGGUUUUUUG [C4U A27G]: the “polymerase ribozyme fitness (log ratio)” value was -2.96.

As to GACUAAUCUGACCUCAGAGCUCGAGAACAUCUUCGGAUGCAGAGGAGGCAGGCUUCGGUGUCGCGAUAGCGCCAACGUCCUCAACCUCCAAUGCAUCUCACCACAUGAUGAUACCUGAAGAGCCUGGGUUUUUUG [C4U C11A G61U C98U G113A U126G], the “polymerase ribozyme fitness (log ratio)” value was -5.59.

As to GACUAAUGUGCCCUCAGAGCUCGAGAACAUCUUCGGAUGCAGAGGACGCAGGCUUCGGUGGCGCGAUAGCGCCAACGUCCUCAACCUCCAAUGCAUCCCACCACAUGAUGAUGCCUGAAGAGACUUGGUUUUUUG [C4U C8G G47C C123A], the “polymerase ribozyme fitness (log ratio)” value was -0.0311.
